Test: yeast display, Sf9 membrane polyspecificity reagent, FACS + sequencing; frameworks hold sequencing errors
Method in brief: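 Galactose-induced (36–48 hours) yeast carrying a synthetic nanobody display library were exposed to 10% biotinylated, detergent-solubilized Sf9 membrane reagent at 4 °C for 1 hour. FACS followed streptavidin microbead enrichment, using low and high (top ~1%) gates for expression (anti-HA) and reagent binding (streptavidin). Colony PCR, MiSeq 2 × 250 sequencing and CDR-length filtering followed. Labels for polyreactivity reflect the gate of origin.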

Row | Sequence | polyreactivity (PSR sort gate)
1 | QVQLVESGGGLVQAGGSLRLSCAASGRIFGDNTMGWYRQAPGKERELVAAISFTGGSTYYADSVKGRFTISRDNAKNTVYLQMNSLKPEDTAVYYCNADWVSTWGYDYWGQGTQVTVSS | low polyreactivity
2 | QVQLVESGGGLVQAGGSLRLSCAASGRIFPKYAMGWYSQAPGKERELVAGITKRVGSTYYADSVKGRFTISRDNAKNTVYLQMNSLKPDDTAVYYCAADYRYLIDYLDPEKEGMDYWGQGTQVTVSS | low polyreactivity
3 | QVQLVESGGGLVQAGGSLLLSCAASGSTFSGYAMGWYRQAPRKESDLVASINWSGGSTYADSVKGRFTISRDNAKNTVYLQMNSLKPEDTAVYYCARRWRAYLYGGRDYWGQGTQVTVSS | low polyreactivity
4 | QVQLVESGGVLVQAGGSLRLSCAASGRTFSVYTMGWYRQAPGKERELVASINWSGGRTYYADSVKGRFTISRDKAKNTVYLQMNSLKPEDTAVYYCAATGWRTLYDYWGQGTQVTVSS | high polyreactivity
5 | QVQLVESGGGLVQAGGSLRLSCAASGLIFRWYAMGWYRQAPGKERELDAAISTSGGRTYYADSVKGRFTISRDNAKNTVYLQMNSLKPEDTAVYYCNAQHASWYTAYSVSFDYWGQGTQVTVSS | low polyreactivity
6 | QVQLVESGGGVVQAGGSLRLSCAASGRIFARYTMGWYRQAPGKEREFVAGIRSSGGRTYYADSVKGRFTISRDTAKNTVYLQMNSLKPEDSAVYYCNAGGSWYFARYDYWGEGTQVTVSS | low polyreactivity
7 | QVQLVESGGGLVQAGGSLRLSCAASGLTFADYAMGWYRQAPGKERELVAAISRRGGSTYYADSVKGRFTISRDNAKNTVYLQMNSLKPEDTAVYYCAAGNRVNRFDYWGQGTQVTVSS | high polyreactivity
8 | QVQLVESGGGLVQAGGSLRLSCAASGGTFRYYAMGRYRPAPGKERDLVARIRYNGGSTYYADSVKGRFTISRDNAKNTVSLQMKSLKPEDTAVDYCAAVGRYPRTWMNYWGQGNQVTVSS | high polyreactivity
9 | QGQLVESGGGLVQAGGSLRISCGASGYIFGDKAMGWYRPEPGKARELVAAITQTGANTYYADSVMGRFTISRDNAKNTVYLQMNSLKPEDSAVYYCNKVSVVYSRSKGFYYTYLKYEFWGQGTQVTVSS | low polyreactivity
10 | QVQLVESWGGLVQAGGSLRLSCAASGRIFHRYAMGWYRQAPGKEREFVAAITYSTGTTYYADSVKGRFTISRDNAKITVYLQMNSLKPEDPAVYYCAKDRRFWHKTWFAYGYDYWGQGTQVTVSS | low polyreactivity
11 | QVQLVESGGGLVQAGGSLRLSCAASGRTFYNAMGWYRPAPGKERELVAAISGSGGSTYYADSVKGRFTISRDNAKNTVYLKMNSLKPEDTAVYYCAARSVWWQVSQGNYWGQGTQVTVSS | low polyreactivity
12 | QVQLVESGGGLVQAGGSLRLSCAASGNIFVPNAMGWYRQAPGKERELVAAIRRGGSTNYADSVKGRFTISRDNAKNTVYLQMNSLKPEDTAVYYCAAYYTYLYHYGTFKIYNYWGQGTQVTVSS | low polyreactivity
13 | QVQLVESGGCLVQAGGSLRLSCAPSGLTMHYYAMGWYRQAPATERELVAAITYSCGSTYYADSVKGRFTISLDNAKNTVYLQMNILKAEDTAVYYCAADTFPTTSEVDYWGQGTQVTVSS | low polyreactivity
14 | QVQLVESGGGLVQAGGSLRLSCAASGRTFSGYAMGWYRQAPGKEREFVAAISRSGGSTYYADSVKGRFTISRDNAKNTVYLQMNSLKPEDIAVYYCAAQIWYSKRLAYKAYDYWGQGTQVTVSS | high polyreactivity
15 | QVQLVESGGGFVQAGGSLRLSCAASGRIFGQYAMGWYRQAPGKERELVAAISQRGGSTYYADSVKGRFTISRDNAKNTVYLQMNSLKPEDTAVYYCAAPPRLIKSYGYNYWGQGTQVTVSS | high polyreactivity
16 | QVQLVESGGGLVQAGGSLRLSCADSGSIFDIYAMGWYRQAPGKERELVADISWSGGSTYYADSVKGRFTISRDNAKNTVYLQMNSLKPEDTAVYYCAADSSRRIGEDYWGQGTQVTVSS | low polyreactivity
17 | QVQLVESGGGLVQAGGILRLSCAASGRIFCSYAMGWYRQAPGKERELVAAITRGASTNYADSVKGRFTISRDNAKNIVYLQMNSLKPEDTAVYYCAAGWGRYPILGYYYWGQGTQVTVSS | high polyreactivity
18 | QVQIVESGVGLVQAGGSLRLSCAASGTIFARYAMGWYRQAPGKERELVAAISWRGGRTYYADSVKGRFTISRDNAKNTVYLQMNSLKPEVTAVYYCAARRQQRGANGGDYWGQGTQVTLSS | high polyreactivity
19 | QVQLVESGGGLVQAGGSLRLSCAASGSIFGFNAMGWYRQAPGKERELVAAISSGGITNYADSVKGRFTISRDNAKNTVSLQMNSLKPEVTAVYYCAAASESNWSFNYWGQGTQVTVSS | low polyreactivity
20 | QVQLVESGGGLVQAGGSLRLSCAASGRTFKYYAMGWYRQAPGKERELVAGITYRDGRTYYADSVKGRFTISRDNAKNTVYLQMNSLKPEDTEVYYCAAERYSSPYWGMDYWGQGTQVTVSS | high polyreactivity
21 | QVQLVESGGALVQAGGSLRLSCAASGRTLESNAMGWYRQTPGKERELVAAISTIGGTYYADSVKGRFTLSRDNAKNTVYLQMNSLKPEDTAVYYCAKVWYDHSYIPIYDSWGQGTQVTVSS | low polyreactivity
22 | QVQLVESGGGLVQAGRSLRLSCAASGLTFRVYPMGWYRQAPGKDRELVAAITGGGGSTYADSVKGRFTISRDNAKNTVYLQMYSLKPEDTAVSYCNKKGYYYKFDYWGQGTQVTVSS | low polyreactivity

Row | Sequence | polyreactivity (PSR sort gate)
23 | QVQLVESGGGLVQAGGSLRLSCAASGSTFRKYAMGWYRQAPGKERELVAAISRGGDSTYYADSVKGRFTISRENAKNTVYLQMNSLKPEDTAVYYCAADTRPGYSGFEYRGQGTQVTVSS | high polyreactivity
24 | QVQLVESGGGLVQAGGSLRLSCAASGLIFRYNAMGWSRQAPGKERELVAAISRSGGTTYYADSVKGRFTISRDNAKNTVYLQMNSLKPEDTAVYYCATRISQSYYNYGYWGQGTQVTVSS | high polyreactivity
25 | QVQLVESGGGLVQAGGSLRLSCAASGITFYGYAMGWYRQAPGKERELVARISRSGGSTYYADSVKGRFTISRDNAKNTVYLQMNSLKPEDTAVYYCAAGYGPSGYTRYYWGQGTQVTVSS | high polyreactivity
26 | QVQLVESGGGLVQAGGSLRLSCAASGSIFVRNAMGWYRQAPGKERELVAADSVKGRFTISRDNAKNTVYLQMNSLKPEDTAVYYCNKDYIIRRGPIVYYGFDYWGQGTQVTVSS | low polyreactivity
27 | QVQLVESGGGLVQAGGSLRLSCAASGRTFLEYAMGWYRQAPGKERELVASITWSGDTTYYADSVKGRFTISRDNAKNTVYLQMNSLKPEDTAVYYCAAGYYYPNTYYSYDWYDYWGQGTQVTVSS | low polyreactivity
28 | QVQLVESGGGLVQAGGSLRLSCAASGFIFLPYAMGWARQAPGKERELVAAITRGGRTYYADSVKGRFTISRDNAKNTVYLQMNSLKPEDTAVYYCAATTYLVWGYNYWGQGTQVTVSS | low polyreactivity
29 | QVQLVESGGVLVQAVGSLRLSCAASGSISSYYAMGWYIQAPGKERELVAAITSGGRTYYADSVKGRFTISRDNAKNTVYLQMNSLKPEATAVYYCAADPDTWSPHYESLGYYWGQGTQVTVSS | high polyreactivity
30 | QVQLVESGGGLVQAGGSLRLSCAASGFTFTYYAMGWYRQAPGKERELVAAISWNGGSTYYADSVKGRFTISRDNAKNTVYLQMNSLKPEDTAVYYCNAYDYQYFYGYEYDYWGQGTQVTVSS | high polyreactivity
31 | QVQLVESGGGLVQAGGSLRLSCAASGNTIRSYAMGWYRPAPGKERELVAAISGRGGSTYYADSVKGRFTISRDNAKNTVYLEMNSLKPEDTAVNYCAAESRRVNYANDYWGQGTEVTVSS | high polyreactivity
32 | QVQLVESGGGLVQAGGSLRLSCASSGSTFHDYAMGWYRQAPGKERELVAAISNSGGSTYYADSVKGRFTISRDNAKNTVYLQMNSLKPEDTAVYYCAADGRWYWDYEYWGQGTQVTVSS | low polyreactivity
33 | QVQLVESVGGLVQAGGSLPLSCAASGSTFVDYDMGWYRQAPGKERELVAAITYSGARTYYADSVKGRFTISRDNAKNTVYLQMNSLTPEDSAVYYGNADQRTASDQLEFDYWGQGTQVTVSS | low polyreactivity
34 | QGQLEDSGGGLVQAGGSLRLSCAASGFSFRSYGMGRYRQAPGKERELVAVISRSGGNTYYAASVKGRFTISRHNAKNTVYLQMHSLKPEDTAVYYCAATLVGTVIRRFDDWGQGTQVTVSS | high polyreactivity
35 | QVQLVESGGGLVQAGGSLRLSCAASGYTFPKYAMGWYRQAPGKERELVAAITKRGGRTYYADSVKGRFTISRDNAKNTVYLQMNSLKPEDTAVYYCAVDLDGPEYSQVHYDYWGQGTQVTVSS | high polyreactivity
36 | QVQLVESGGGLVQAGGSLLLSCAASGITFIRNGMGWYRPAPGKERELVAAISDTGARTYYADSVKGRFTISRDNAKNTVYLQMNSLKPEDTAVYYCAADFQTYWSHLYGYIGQYDYWGQGTQVTVSS | low polyreactivity
37 | QVQLVESGGGLVQAGGSLRLSCAASGRILGTNAKGWYRQAPGKERELVAAISRGGSTYYADSVKGRFTISRDNANNTVYLQMNSLKPEDTAVFYCAVTVLSKRRYYYWGQGTQVTVSS | high polyreactivity
38 | QVQLVESGGGLVQAGGSLRLSCAASGNIFGHYTMGGYRQAPGKERELVAAISRTGGRTYYADSVKGRFTISRDNAKKTVYLQMNSLKPEDTAVYYCAADKGGTYFNGDSWGQGTQVTVSS | high polyreactivity
39 | QVQLVESGGGLVQAGGSLRLSCAASGSIFDPYAMGWYRQAPGKERELVAAITSDGSTNYADSVKGRFTISRDNAKNTVYLQMNSLKPEDTAVYYCAARYNLGEYDYWGQGTQVTVSS | low polyreactivity
40 | QVQLVESGGGLVQAGGSLRLSCAASGSILWVNAMGWYRQAPGKERELVAAITSGGDSTNYADSVKGRFTISRDNAKNTVYLQMNSLKPEDTAVYYCNAEFWLNEDLDYDTSYDYWGQGTQVTVSS | low polyreactivity
41 | QVQLVESGGGLVQAGGSLRLSCAASGSIFWYNAMGWYRQAPGKERELVAAIRWRGGSTYYADSVKGRFTISRDNAKNTVYLQMNSLKPEDTAVYDCAAQVYVSQLYTSYYYWGQGTQVTVSS | high polyreactivity
42 | QVQLVESGGGLVQAGGSLRLSCAASGRTFQYNAMGWYRQAPGKERELVAAISSSGGSTYYADSVKGRFTISRDNAKNTVYLQMNSLKPEDTAVYYCNAYSQSWNFYGDGDYWGQGSQVTVSS | low polyreactivity
43 | QVQLVESGGGLVQAGGSLSLSSAASGFIFHTYAMRWYRQAPGKERELVASITWRGGRTYYADSVKGRFTISRDNAKNTVYLQLNSLNPVYTAVYYCAAVTFSYDGYDYWGQGTQVTVSS | low polyreactivity

From the nanobody polyreactivity screen of Harvey et al. (2022)
